Assay results: paper PMC10411901, “FIRRM cooperates with FIGNL1 to promote RAD51 disassembly during DNA repair” (Science Advances, 2023)

Experiments:
[1] = target: T1, recombinant full-length FIRRM (human, UniProt Q9NSG2 1-853); assay: co-IP; purified recombinant RAD51, FIRRM and FIGNL1 together; anti-RAD51 14B4 on protein A/G Sepharose; IPB buffer (20 mM KPO4 pH 7.4, 175 mM KCl, 0.5 mM EDTA, 0.5% NP-40, 10% glycerol, 1 mM DTT); Western blot; conditions: both partners purified
T1 construct: full-length codon-optimized human FIRRM from GenScript; Insect cell form: modified pFastBac dual vector with an N-terminal GFP tag removable with TEV protease; also called iFIRRM (form from insect cells); source: purified from bacteria (E. coli BL21RP) or Sf9 insect cells
T1 sequence (looked up): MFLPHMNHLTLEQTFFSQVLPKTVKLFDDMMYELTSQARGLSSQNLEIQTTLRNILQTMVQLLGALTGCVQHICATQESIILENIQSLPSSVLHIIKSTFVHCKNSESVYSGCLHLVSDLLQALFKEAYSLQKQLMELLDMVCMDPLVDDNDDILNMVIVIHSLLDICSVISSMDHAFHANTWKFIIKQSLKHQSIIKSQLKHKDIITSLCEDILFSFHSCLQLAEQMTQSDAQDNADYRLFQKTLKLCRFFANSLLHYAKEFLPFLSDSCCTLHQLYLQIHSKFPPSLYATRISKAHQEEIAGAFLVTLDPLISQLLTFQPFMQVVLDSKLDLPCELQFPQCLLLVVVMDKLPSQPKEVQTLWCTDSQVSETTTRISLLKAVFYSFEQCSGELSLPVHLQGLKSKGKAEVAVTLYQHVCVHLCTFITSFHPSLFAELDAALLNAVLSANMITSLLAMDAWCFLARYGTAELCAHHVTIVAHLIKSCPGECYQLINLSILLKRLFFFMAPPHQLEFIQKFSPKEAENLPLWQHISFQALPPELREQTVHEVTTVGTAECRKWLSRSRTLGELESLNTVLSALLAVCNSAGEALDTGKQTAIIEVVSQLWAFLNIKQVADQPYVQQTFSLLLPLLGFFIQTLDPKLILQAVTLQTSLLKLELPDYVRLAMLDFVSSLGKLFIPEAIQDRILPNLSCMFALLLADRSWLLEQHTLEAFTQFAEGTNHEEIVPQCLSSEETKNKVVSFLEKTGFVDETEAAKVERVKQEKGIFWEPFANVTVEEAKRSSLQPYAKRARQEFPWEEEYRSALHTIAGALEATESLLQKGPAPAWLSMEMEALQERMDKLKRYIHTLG

[2] = target: the molecule itself; assay: cryo-EM two-dimensional class averages; FIGNL1 10 μM in 1× PBS with 2 mM MgCl2 and 1 mM AMP-PNP on graphene oxide lacey carbon grids; 2D classes from 1287 particles; hexamer model from an AlphaFold monomer

B1: recombinant full-length FIGNL1 (natural protein, human, UniProt Q6PIW4 1-674, looked up)
chain: MQTSSSRSVHLSEWQKNYFAITSGICTGPKADAYRAQILRIQYAWANSEISQVCATKLFKKYAEKYSAIIDSDNVESGLNNYAENILTLAGSQQTDSDKWQSGLSINNVFKMSSVQKMMQAGKKFKDSLLEPALASVVIHKEATVFDLPKFSVCGSSQESDSLPNSAHDRDRTQDFPESNRLKLLQNAQPPMVTNTARTCPTFSAPVGESATAKFHVTPLFGNVKKENHSSAKENIGLNVFLSNQSCFPAACENPQRKSFYGSGTIDALSNPILNKACSKTEDNGPKEDSSLPTFKTAKEQLWVDQQKKYHQPQRASGSSYGGVKKSLGASRSRGILGKFVPPIPKQDGGEQNGGMQCKPYGAGPTEPAHPVDERLKNLEPKMIELIMNEIMDHGPPVNWEDIAGVEFAKATIKEIVVWPMLRPDIFTGLRGPPKGILLFGPPGTGKTLIGKCIASQSGATFFSISASSLTSKWVGEGEKMVRALFAVARCQQPAVIFIDEIDSLLSQRGDGEHESSRRIKTEFLVQLDGATTSSEDRILVVGATNRPQEIDEAARRRLVKRLYIPLPEASARKQIVINLMSKEQCCLSEEEIEQIVQQSDAFSGADMTQLCREASLGPIRSLQTADIATITPDQVRPIAYIDFENAFRTVRPSVSPKDLELYENWNKTFGCGK
notes: Insect cell form: modified pFastBac dual vector with an N-terminal GFP tag removable with TEV protease; source: purified from bacteria (E. coli BL21RP) or Sf9 insect cells
binding result [1]: binds

B2: FIGNL1 purified from insect cells (natural protein, human, UniProt Q6PIW4 1-674, looked up)
chain: B1 chain
notes: The GFP tag is removable with tobacco etch virus protease; the results speak of the protein from insect cells; source: Sf9 insect cells (baculovirus), purified (gel filtration)
stoichiometry N [2]: 6
